One molecule from patent publication US20090291088A1 (Biogen, published 2009) can be followed below.

The EC50 is the midpoint of the concentration-response curve. Usually IC50 stands for the concentration that inhibits the measured activity by half. Read a high IC50 as a need for much substance. One may read the Kd as the concentration at which binding is half-saturated. Lower therefore signals higher affinity. As a reminder, the EC50 (read off the curve) is the midpoint of the concentration-response curve. Low readings indicate an effect from little substance, high ones a need for much substance. As a reminder, the koff is a measure of how fast the partners let go of each other. Broadly, the kon is the second-order rate constant of association. Read a high kon as faster complex formation.

For assay [1], the target named is T1, human IGF-1R expressed on cells (human, UniProt P08069 31-1367).
T1 construct: On MCF-7 tumor cells or on 3T3/CHO transfectants; precursor is processed into alpha and beta subunits; Signal peptide 1-30 left out as stated; also called wild type IGF-1R; IGF-1R 3T3
As to the kind of experiment: binding to tumor cells.

The target in assay [2] is T2, human IGF-1R(1-903)-Fc (human, UniProt P08069 31-933).
T2 construct: Made by Biogen Idec; Multimerises through IGF-1R and Fc; also called hIGF-1R-Fc; IGF-1R-Fc; not shown: C-terminal human IgG1-Fc tag
As to the kind of experiment: competition ELISA: biotinylated hIGF-1R-Fc on streptavidin plate, 320 nM human IGF-1 His, detection with anti-His-HRP; blocked ligand human IGF-1 His. How it is done:
hIGF-1R-Fc was biotinylated using EZ-Link Sulfo-NHS-LC-Biotin according to the protocol provided by the manufacturer (Pierce Cat. No. 21335). Biotinylated human IGF-1R-Fc at 5 μg/ml was added to the wells of SigmaScreen streptavidin-coated 96-well plates (Sigma, Cat. No. M5432-5EA; Sigma-Aldrich Corp. (St. Louis, Mo., USA)) at 100 μL/well and incubated overnight at 2-8° C. The plates were then washed four times with 200 μL/well PBST. […] The dilutions were added to the plates in duplicate at 100 μL/well and the plates were incubated at RT for 1 hour. The plates were then washed four times with 200 μL/well PBST. An HRP-conjugated anti-Histag antibody (Penta-His HRP Conjugate, QIAGEN, Cat. No. 1014992) was diluted 1:1000 in PBST and added to plates at 100 μL/well, and the plates were incubated at RT for one hour. The plates were then washed four times with 200 μL/well PBST. SureBlue Reserve TMB Microwell Peroxidase Substrate (KPL, Cat. No. 53-00-01) was added to plates at 100 μL/well followed by 1% phosphoric acid at 100 μL/well once the desired reaction was observed. The absorbance of each well was determined at 450 nm, and the results were normalized and plotted against the log of antibody concentration.
(In general: An ELISA detects its analyte on a solid surface through an enzyme-linked reagent.)

Assay [3] concerns the target T3, IGF-1R (soluble, construct not stated) (human, UniProt P08069 31-932, limits assumed).
T3 construct: whole entry named; also called Solube IGF-1R Protein; soluble recombinant human IGF-1R
In words: binding to soluble IGF-1R protein.

Assay [4] concerns the target T4, human insulin receptor expressed in mammalian cells (UniProt P06213 28-1382, limits assumed).
T4 construct: whole, on cells; Cells were solubilised with Triton X-100 before immunoprecipitation; also called INSR; IR
In words: immunoprecipitation from IR CHO lysate, western blot with mouse anti-human IR. The protocol: Recombinant IGF-1R and insulin receptor (IR) were independently expressed in mammalian cells (3T3 or CHO). […] Antibody/antigen complexes were released from the beads by acid treatment, applied to Tris-Glycine SDS-PAGE gels and blotted to nitrocellulose membranes. Detection was performed using mouse anti-human IR (FIG. 24A) or mouse anti-human IGF-1R (FIG. 24B) and goat α-mouse IgG.
In general terms: In western blotting, separated proteins are transferred to a membrane and probed.

The target in assay [5] is cynomolgus IGF-1R expressed on cells (cynomolgus macaque, UniProt G7P9I7 31-1343). As to the kind of experiment: binding to CHO transfectants.
Assay [6] has as its target T5, Rhesus IGF-1R expressed on CHO cells (rhesus monkey, UniProt I2CWY3 31-1367).
T5 construct: whole, on cells; also called Rhesus IGF-1R/CHO
As to the kind of experiment: binding to CHO transfectants.

Assay [7] deals with T3, IGF-1R (soluble, construct not stated …). As to the kind of experiment: ligand blocking, competitor IGF-1; IGF-1 as the blocked ligand.
Assay [8] concerns the target T6, human IGF-1R(1-902)-His10 (human, UniProt P08069 31-932).
T6 construct: Cy5-labelled in tr-FRET; also called hIGF-1R-His10; IGF-1R-His
In words: SPR, antibody over IGF-1R-10His captured by anti-His, 1:1 model, approximate. The protocol:
All surface plasmon resonance (SPR) experiments were performed on a Biacore 3000 set to 25° C. using HBS-EP (Biacore, Cat. No. BR-1001-88) as the running buffer. A biotin-labeled anti-HisTag antibody (biotin-PENTA-His, Qiagen Cat. No. 34440) was immobilized to saturation on a Biacore SA chip (Cat. No. BR-1000-32) surface by injection at 500 nM in HBS-EP buffer. […] Subsequent to IGF-1R injections, flow rates were increased to 20 μL/min. A second, 130 μL injection of anti-IGF-1R antibody or Fab was performed to investigate interactions with the receptor. Each antibody and Fab was serially diluted from 64 nM to 0.5 nM to obtain concentration dependent kinetic binding curves. Each injection series was regenerated using 3×10 μL injections of 10 mM Acetate, pH 4.0, at 20 μL/min. Each curve was double referenced using (1) data obtained from a streptavidin surface devoid of IGF-1R and (2) data from a primary injection of IGF-1R followed by a secondary injection of HBS-EP buffer. […]
(§1) The rates at which the antibodies accumulate on the IGF-1R coated surface when applied at various concentrations as well as the rates at which they dissociated during applications of pure buffer were investigated by fitting the data to a 1:1 binding model. Approximate kinetic rate constants and equilibrium dissociation constant were calculated (Table 14).
For orientation: In SPR one partner is held on a chip, and binding of the other changes the refractive index at the surface.

Assay [9] deals with T2, human IGF-1R(1-903)-Fc. In words: ELISA, plate coated with soluble IGF-1 receptor Fc fusion protein, detection with anti-human kappa-HRP. How it is done: The plate was washed with phosphate-buffered saline (PBS, Irvine Scientific, Cat#9240), pH 7.4 plus 0.025% Tween 20 in the Skan Washer 300 (Skatron Instruments), blocked with buffer containing 1% nonfat milk, 0.05% Tween 20 in PBS, pH 7.4, and then incubated at room temperature for 1 hour. After incubation plate was washed with PBS plus 0.025% Tween 20 in the Skan Washer 300. […] Following a one hour incubation at room temperature, plate was washed with PBS plus 0.025% Tween 20 in the Skan Washer 300. […] Plate incubated for 1 hour at room temperature was washed with PBS plus 0.025% Tween 20 in the Skan Washer 300. […] The absorbance was measured at 450 nm, background 540 nm for TMB using the Molecular Devices plate reader. Data was analyzed using the SOFTMAX PRO software package version 4.3 LS (Molecular Devices Corp.).

The target in assay [10] is T1, human IGF-1R expressed on cells. In words: cell-based or functional assay.
Assay [11] deals with T2, human IGF-1R(1-903)-Fc. In words: ELISA on hIGF-1R-Fc, competitor biotinylated M13-C06.
Another assay concerns the target T7, human INSR(28-956)-His10 (human, UniProt P06213 28-956).
T7 construct: range 28-956; Bought (R&D Systems 1544-IR); also called rh-INSR; soluble insulin receptor
In words: SPR, INSR over immobilised antibody.

Assay [12] addresses T8, rat IGF-1R expressed on immune cells (rat, UniProt P24062 31-1370).
T8 construct: whole, on cells
As to the kind of experiment: FACS on granulocytes, monocytes, lymphocytes.

The target of assay [13] is T2, human IGF-1R(1-903)-Fc. In words: competition ELISA: biotinylated hIGF-1R-Fc on streptavidin plate, 320 nM human IGF-2 His, detection with anti-His-HRP; blocked ligand human IGF-2 His.
Assay [14] addresses T6, human IGF-1R(1-902)-His10. As to the kind of experiment: SPR, antibody over captured IGF-1R-10His. How it is done: All surface plasmon resonance (SPR) experiments were performed on a Biacore 3000 set to 25° C. using HBS-EP (Biacore, Cat. No. BR-1001-88) as the running buffer. A biotin-labeled anti-HisTag antibody (biotin-PENTA-His, Qiagen Cat. No. 34440) was immobilized to saturation on a Biacore SA chip (Cat. No. BR-1000-32) surface by injection at 500 nM in HBS-EP buffer. […] Subsequent to IGF-1R injections, flow rates were increased to 20 μL/min. A second, 130 μL injection of anti-IGF-1R antibody or Fab was performed to investigate interactions with the receptor. Each antibody and Fab was serially diluted from 64 nM to 0.5 nM to obtain concentration dependent kinetic binding curves. Each injection series was regenerated using 3×10 μL injections of 10 mM Acetate, pH 4.0, at 20 μL/min. Each curve was double referenced using (1) data obtained from a streptavidin surface devoid of IGF-1R and (2) data from a primary injection of IGF-1R followed by a secondary injection of HBS-EP buffer. The concentration series for each antibody and Fab was fit to the 1:1 binding model provided within the BiaEvaluation software of the manufacturer.
as §1

In assay [15] the target is T3, IGF-1R (soluble, construct not stated …). As to the kind of experiment: ligand blocking, competitor IGF-2; IGF-2 as the blocked ligand.

T8 sequence (P24062 31-1370): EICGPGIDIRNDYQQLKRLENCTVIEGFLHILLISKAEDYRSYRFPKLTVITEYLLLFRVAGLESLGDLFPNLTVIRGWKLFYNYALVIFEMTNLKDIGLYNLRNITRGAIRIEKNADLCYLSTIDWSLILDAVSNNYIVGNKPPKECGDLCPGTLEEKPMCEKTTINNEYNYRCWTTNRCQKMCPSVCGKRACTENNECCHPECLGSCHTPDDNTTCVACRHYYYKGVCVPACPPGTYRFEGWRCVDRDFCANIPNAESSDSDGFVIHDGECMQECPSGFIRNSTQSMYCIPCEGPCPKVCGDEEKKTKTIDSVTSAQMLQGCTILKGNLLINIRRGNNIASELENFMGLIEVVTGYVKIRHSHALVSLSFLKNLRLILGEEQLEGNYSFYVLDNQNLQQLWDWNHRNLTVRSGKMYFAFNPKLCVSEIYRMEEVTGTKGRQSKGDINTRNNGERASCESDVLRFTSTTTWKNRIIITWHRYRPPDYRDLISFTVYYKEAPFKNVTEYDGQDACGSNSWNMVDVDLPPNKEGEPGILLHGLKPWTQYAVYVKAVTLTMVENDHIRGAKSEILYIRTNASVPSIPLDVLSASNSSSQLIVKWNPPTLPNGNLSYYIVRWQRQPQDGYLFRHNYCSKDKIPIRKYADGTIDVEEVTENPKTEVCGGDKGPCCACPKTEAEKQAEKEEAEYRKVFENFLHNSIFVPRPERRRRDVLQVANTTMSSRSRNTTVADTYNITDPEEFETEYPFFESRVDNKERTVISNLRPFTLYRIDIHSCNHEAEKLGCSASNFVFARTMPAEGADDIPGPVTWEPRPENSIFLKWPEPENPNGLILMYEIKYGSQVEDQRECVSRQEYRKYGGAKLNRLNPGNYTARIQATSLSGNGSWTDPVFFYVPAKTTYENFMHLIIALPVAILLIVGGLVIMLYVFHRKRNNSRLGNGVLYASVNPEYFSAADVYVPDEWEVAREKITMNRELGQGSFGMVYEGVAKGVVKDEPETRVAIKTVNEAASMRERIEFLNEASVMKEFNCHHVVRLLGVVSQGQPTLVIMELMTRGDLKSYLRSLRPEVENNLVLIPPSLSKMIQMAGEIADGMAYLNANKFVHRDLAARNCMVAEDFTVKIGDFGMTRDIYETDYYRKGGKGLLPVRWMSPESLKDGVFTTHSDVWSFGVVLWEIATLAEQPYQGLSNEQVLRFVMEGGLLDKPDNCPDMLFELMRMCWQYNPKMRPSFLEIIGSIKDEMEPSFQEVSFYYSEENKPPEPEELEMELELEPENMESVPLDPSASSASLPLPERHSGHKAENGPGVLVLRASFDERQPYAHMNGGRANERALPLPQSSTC
T5 sequence (I2CWY3 entry or part of it): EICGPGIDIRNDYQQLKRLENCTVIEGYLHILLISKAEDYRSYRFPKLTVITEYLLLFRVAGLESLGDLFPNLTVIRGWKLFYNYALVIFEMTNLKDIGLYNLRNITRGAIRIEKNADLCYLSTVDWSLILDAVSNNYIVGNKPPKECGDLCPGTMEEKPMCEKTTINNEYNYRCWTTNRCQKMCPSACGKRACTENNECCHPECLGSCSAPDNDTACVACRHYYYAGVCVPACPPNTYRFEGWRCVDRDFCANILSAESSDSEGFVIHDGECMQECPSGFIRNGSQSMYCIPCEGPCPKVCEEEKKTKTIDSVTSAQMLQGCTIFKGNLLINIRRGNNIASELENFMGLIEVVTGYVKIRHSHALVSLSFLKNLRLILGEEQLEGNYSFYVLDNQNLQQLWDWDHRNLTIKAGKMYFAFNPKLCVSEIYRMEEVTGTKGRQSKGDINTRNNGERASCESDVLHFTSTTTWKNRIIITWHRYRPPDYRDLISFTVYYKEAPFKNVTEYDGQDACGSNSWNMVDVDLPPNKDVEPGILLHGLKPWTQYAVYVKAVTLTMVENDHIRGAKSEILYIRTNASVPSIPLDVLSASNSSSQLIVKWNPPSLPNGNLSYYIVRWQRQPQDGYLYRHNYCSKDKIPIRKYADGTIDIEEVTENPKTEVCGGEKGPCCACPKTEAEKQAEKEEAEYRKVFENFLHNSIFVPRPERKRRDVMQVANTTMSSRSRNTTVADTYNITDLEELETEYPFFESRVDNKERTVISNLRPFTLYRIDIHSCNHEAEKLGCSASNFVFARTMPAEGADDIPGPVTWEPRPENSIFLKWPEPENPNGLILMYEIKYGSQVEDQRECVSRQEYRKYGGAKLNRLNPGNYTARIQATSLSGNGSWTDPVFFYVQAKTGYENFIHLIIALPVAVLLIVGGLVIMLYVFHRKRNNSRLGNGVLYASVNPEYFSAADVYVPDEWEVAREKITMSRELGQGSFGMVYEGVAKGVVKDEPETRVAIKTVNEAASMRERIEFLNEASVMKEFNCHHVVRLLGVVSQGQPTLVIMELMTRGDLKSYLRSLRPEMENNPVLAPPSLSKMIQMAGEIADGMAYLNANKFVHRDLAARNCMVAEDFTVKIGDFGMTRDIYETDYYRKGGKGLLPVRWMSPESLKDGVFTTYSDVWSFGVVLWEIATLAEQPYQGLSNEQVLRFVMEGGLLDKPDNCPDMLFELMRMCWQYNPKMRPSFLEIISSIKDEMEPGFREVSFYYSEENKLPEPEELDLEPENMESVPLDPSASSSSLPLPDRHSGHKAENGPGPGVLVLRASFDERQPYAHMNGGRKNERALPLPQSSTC

B1: M13-C06.G4.P.agly (antibody, human IgG4 S228P, kappa, V domains shown)
VH: EVQLLESGGGLVQPGGSLRLSCAASGFTFSIYRMQWVRQAPGKGLEWVSGISPSGGTTWYADSVKGRFTISRDNSKNTLYLQMNSLRAEDTAVYYCARWSGGSGYAFDIWGQGTMVTVSS
VL: DIQMTQSPLSLSASVGDRVTITCQASRDIRNYLNWYQQKPGKAPKLLIYDASSLQTGVPSRFGGSGSGTDFSFTIGSLQPEDIATYYCQQFDSLPHTFGQGTKLEIKR
notes: Full-length human aglycosylated IgG4.P (S228P/T299A, EU), kappa; Places that say only 'M13-C06 antibody' were assigned to this version; Labelled with Eu chelate or biotin in some assays; also called M13-C06_Ab; Eu-C06
On to B1, for which the EC50 in assay [1] worked out at 0.22 nM; in assay [3] it was 0.0422 nM; in assay [5] it was 0.47 nM; in [6], 0.27 nM. For the same molecule, the “IC50 (read off the curve)” value with human IGF-1R(1-903)-Fc [2] and with human IGF-1R(1-903)-Fc [13] was ~1 nM each time. Moreover, the binding result in assay [4] is recorded as “no binding”; with human INSR(28-956)-His10, “no binding (tested: 2 µM)”; in assay [12], “no binding”. In addition, the half-maximal inhibitory concentration (IC50) amounted to 0.979 nM in assay [7] and 0.525 nM in assay [15]. Also, binding in assay [8] was characterised by a dissociation constant (Kd) of 0.13 nM. Further, in the assay with human IGF-1R(1-903)-Fc [9], the “EC50 (read off the curve)” value is ~0.04 nM. Moreover, in assay [10], the “inhibition of IGF-1 and IGF-2 mediated IGF-1R receptor phosphorylation (EC50)” value is < 1 nM. In the assay with human IGF-1R(1-903)-Fc [11], the “percent competition (relative to self-competition)” value fell in the range of 90 to 100%. For the same molecule, the koff in assay [14] was 0.00025 s⁻¹. In assay [14], this molecule gave an on-rate constant (kon) of 1.8e+06 M⁻¹ s⁻¹.
